B1: IRCR-101 (3H10) anti-NRP1 IgG (antibody, V domains shown)
VH: EVQLLESGGGLVQPGGSLRLSCAASGFTFSSYYMSWVRQAPGKGLEWVSAISPGSSNKYYADSVKGRFTISRDNSKNTLYLQMNSLRAEDTAVYYCARRKYMFDYWGQGTLVTVSS
VL: QSVLTQPPSASGTPGQRVTISCTGSSSNIGNNDVYWYQQLPGTAPKLLIYSDSNRPSGVPDRFSGSKSGTSASLAISGLRSEDEADYYCASWDSSLSGYVFGGGTKLTVL
B2: 4F12 anti-NRP1 IgG (antibody, V domains shown)
VH: EVQLLESGGGLVQPGGSLRLSCAASGFTFSGYAMSWVRQAPGKGLEWVSGISPGSGSTYYADSVKGRFTISRDNSKNTLYLQMNSLRAEDTAVYYCAKRKTRFDYWGQGTLVTVSS
VL: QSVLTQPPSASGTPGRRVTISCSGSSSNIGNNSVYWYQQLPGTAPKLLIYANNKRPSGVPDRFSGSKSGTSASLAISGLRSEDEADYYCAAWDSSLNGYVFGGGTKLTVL
notes: scFv converted to IgG and made in the Expi 293F system, 150 kD; also called 4F12 antibody
B3: 1A03 anti-NRP1 IgG (antibody, V domains shown)
VH: EVQLLESGGGLVQPGGSLRLSCAASGFTFSSYYMSWVRQAPGKGLEWVSAISPGSSNKYYADSVQGRFTISRDNSKNTLYLQMNSLRAEDTAVYYCARRKKSFDYWGQGTLVTVSS
VL: QSVLTQPPSASGTPGQRVTISCSGPSSNIGNNDVSWYQQLPGTAPKLLIYSDNNRPSGVPDRFSGSKSGTSASLAISGLRSEDEADYYCGAWVASLSAYVFGGGTKLTVL

Key:
[1] = biological target: NRP1 expressed on the surface of cancer cells (NRP1-overexpressing patient-derived cells); U87MG glioblastoma … (human, UniProt O14786 22-923); test: cell-based or functional assay
human NRP1 protein = biological target: T1, human NRP1 protein (human, UniProt O14786-2 22-644, limits assumed); test: IgG on human NRP1; text says ELISA and SPR, the legend of FIG. 14 says ELISA
T1 construct: Protein used for ELISA coating (200 ng per well) and SPR; also called Neuropilin 1
T1 sequence (looked up): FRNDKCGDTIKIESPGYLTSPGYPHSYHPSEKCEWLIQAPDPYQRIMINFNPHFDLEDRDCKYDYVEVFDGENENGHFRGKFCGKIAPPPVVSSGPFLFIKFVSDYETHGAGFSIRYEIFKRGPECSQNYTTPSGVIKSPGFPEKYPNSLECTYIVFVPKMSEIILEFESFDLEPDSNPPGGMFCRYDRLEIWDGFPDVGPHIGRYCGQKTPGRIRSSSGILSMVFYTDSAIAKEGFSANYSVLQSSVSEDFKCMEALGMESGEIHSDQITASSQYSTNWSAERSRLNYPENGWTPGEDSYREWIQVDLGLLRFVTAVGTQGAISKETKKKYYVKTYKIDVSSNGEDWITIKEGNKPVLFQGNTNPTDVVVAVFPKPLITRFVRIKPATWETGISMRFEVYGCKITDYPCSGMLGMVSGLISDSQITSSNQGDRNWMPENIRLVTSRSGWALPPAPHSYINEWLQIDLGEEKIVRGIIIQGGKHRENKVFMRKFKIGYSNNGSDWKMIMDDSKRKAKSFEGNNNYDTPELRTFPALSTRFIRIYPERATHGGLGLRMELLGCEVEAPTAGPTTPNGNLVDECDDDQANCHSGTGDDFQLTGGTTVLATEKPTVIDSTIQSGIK

Binder | inhibition of tumor cells migration in patient-derived cells [1] | Kd (human NRP1 protein)
B1 | > 50% | 
B2 | 40% | 0.6 nM
B3 | > 50% | 
